The subject of one assay is NtrC1^C oligomer. Kind of assay: Native PAGE gel binding assay, dye fluorescence visualized at 488 nm. The arrangement: species or system Aquifex aeolicus. The note with it: 0.16 µM Alexa488-σ54(16-41), ADP-BeF3− at 500 µM, native PAGE 4–15%, Typhoon 488 nm.
Assay [1] concerns the target Alexa488-full length σ^54 (K2C) (UniProt P24255). Briefly: fluorescence polarisation.
For assay [2], the target named is T1, NtrC1^C(121–387), central AAA+ ATPase domain of A. aeolicus NtrC1 (A. aeolicus, UniProt O67198 121-387).
T1 sequence (looked up): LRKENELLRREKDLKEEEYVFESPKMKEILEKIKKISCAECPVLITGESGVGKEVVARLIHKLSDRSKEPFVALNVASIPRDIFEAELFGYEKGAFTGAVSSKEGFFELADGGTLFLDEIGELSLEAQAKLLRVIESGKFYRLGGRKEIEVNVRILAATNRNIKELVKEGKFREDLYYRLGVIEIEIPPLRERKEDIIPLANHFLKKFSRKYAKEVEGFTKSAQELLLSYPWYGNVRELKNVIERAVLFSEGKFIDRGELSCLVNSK
Kind of assay: fluorescence polarisation. For orientation: Fluorescence polarisation rises when a labelled molecule tumbles more slowly, as on binding a larger partner.

Ends that are not written are not given here.

Regarding “Alexa488-σ^54(16-41): σ54(16-41) with N-terminal Trp-Cys, cysteine derivatized with Alexa Fluor 488 maleimide (WC(Alexa Fluor 488 maleimide)LLLKQDLELLTYQTQELEKLIHEEVL)”, the “Binding to NtrC1^C oligomer on native gel with ADP-BeF3−” value in the assay on NtrC1^C oligomer is recorded as “bound to NtrC1^C”.

B1: NtrC1^C(121–387), central AAA+ ATPase domain of A. aeolicus NtrC1 (domain or fragment)
chain: LRKENELLRREKDLKEEEYVFESPKMKEILEKIKKISCAECPVLITGESGVGKEVVARLIHKLSDRSKEPFVALNVASIPRDIFEAELFGYEKGAFTGAVSSKEGFFELADGGTLFLDEIGELSLEAQAKLLRVIESGKFYRLGGRKEIEVNVRILAATNRNIKELVKEGKFREDLYYRLGVIEIEIPPLRERKEDIIPLANHFLKKFSRKYAKEVEGFTKSAQELLLSYPWYGNVRELKNVIERAVLFSEGKFIDRGELSCLVNSK
As for B1, in assay [1], the dissociation constant Kd – broadly, a measure of binding affinity in units of concentration – came out at 2000 nM.

WC(Alexa Fluor 488 maleimide)LLLKQDLELLTYQTQELEKLIHEEVL [Alexa488-σ^54(16-41) (A.a. σ^54(WC-16-41))]: binding in assay [2] was characterised by a dissociation constant (Kd) of 1000 nM.

The record behind these values is paper PMC5116005 (Journal of molecular biology, 2016).
